Data taken from the nanobody polyreactivity screen of Harvey et al. (2022).

experiment: yeast display, Sf9 membrane polyspecificity reagent, FACS + sequencing; frameworks hold sequencing errors
How it was run: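 Genes from sorted yeast were amplified by colony PCR, read by MiSeq 2 × 250 sequencing and filtered on CDR length. These cells carried a synthetic nanobody library in Saccharomyces cerevisiae BJ5465 and were sorted by FACS into low and high (top ~1%) gates on anti-HA and streptavidin fluorescence. Polyreactivity is labelled according to the gate of origin.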

Question: Which “polyreactivity (PSR sort gate)” value does the source give for “QVQLVESGGGLVQAGGSLRLSCAASGRTFYSYAMGWYRQAPGKEREFVAAISVRGVITYYADSVKGRFTISRDNAKNTVYLQMNSLKPEDTAVYDCAADWSGYYTYDYWGQGTQVTVSS” here?
Answer: low polyreactivity

Question: For “QVQLVESGGGLVQAGGSLRLSCAASGRTFYSYAMGWYRQAPGKERELVAAISRGGNTYYADSVKGRFTISRDNAKNTVYLQMNSLKPEDTAVYYCAVVRVTYYASIYHRGYDYWGQGTQVTVSS”, which “polyreactivity (PSR sort gate)” value is on record?
Answer: low polyreactivity

Question: With “QVQLVESGGGLVQAGGSLRLSCAASGRTFYSYAMGWYRQAPGKERELVAAITWRGVRTYYADSVKGRFTISRDNAKNTVYLQMNSLKPEDTAVYYCAAGGVRTRSWDTSLINRYGYWGQGTQVTVSS” as the sequence, how does the “polyreactivity (PSR sort gate)” value read?
Answer: high polyreactivity

Question: Which “polyreactivity (PSR sort gate)” value does the source give for “QVQLVESGGGLVQAGGSLRLSCAASGRTFYSYAMGWYRQAPGKERELVASISSSGASTYYADSVKGRFTISRDNAKNTVYLQMNSLKPEDTAVYYCNAVWRTSFITIYGFDYWGQGTQVTVSS” here?
Answer: high polyreactivity

Question: Which “polyreactivity (PSR sort gate)” value does the source give for “QVQLVESGGGLVQAGGSLRLSCAASGRTFYSYAMGWYRQAPGKERELVATITNGDTTNYADSVKGRFTISRDNAKNTVYLQMNSLKPEDTAVYYCAKDISPGYDEYDYWGQGTQVTVSS” here?
Answer: low polyreactivity

Question: With “QVQLVESGGGLVQAGGSLRLSCAASGRTFYTNAMGWYRQAPGKERELSTNYADSVKGRFTISRDNAKNTVYLQMNSLKPEDTAVYYCNADGFLRFAGFDYWGQGTQVTVSS” as the sequence, how does the “polyreactivity (PSR sort gate)” value read?
Answer: low polyreactivity

Question: For “QVQLVESGGGLVQAGGSLRLSCAASGRTFYTNAMGWYRQARGKERELVAGISWGDGNTYYADSVKWRFTISRDNAKNTVYLQMNSLKPEDTALYYCAVTYIILWSYSHTEFDYWGQGNQVTVSS”, which “polyreactivity (PSR sort gate)” value is on record?
Answer: low polyreactivity

Question: Which “polyreactivity (PSR sort gate)” value does the source give for “QVQLVESGGGLVQAGGSLRLSCAASGRTFYTYAMGWYRQAPGKEREFVAAIDWSGGTTYYADSVKGRFTISRDNAKNTVFLQINSLKPEDTAVYYCAADDSFYRQYYYRAHGDYWGQGYQVTVSS” here?
Answer: low polyreactivity

Question: With “QVQLVESGGGLVQAGGSLRLSCAASGRTFYVNARGWYREAPGKERELVATISRGTRTYYADSVKGRFTISRDNAKNTVYLQMNSLIPEDTAVYYCAADARPYESPYYYWGQGTQVTVSS” as the sequence, how does the “polyreactivity (PSR sort gate)” value read?
Answer: high polyreactivity

Question: For “QVQLVESGGGLVQAGGSLRLSCAASGRTFYVNTMGWYRQAPGKEREFVAAISYSGGRTYYADSVKGRFTISRDNAKNTVYLQMNSLKPEDTAVYYCATRINSWSAYTKYDYWGQGTQVTVSS”, which “polyreactivity (PSR sort gate)” value is on record?
Answer: high polyreactivity

Question: For “QVQLVESGGGLVQAGGSLRLSCAASGRTFYVNTMGWYRQAPGKEREFVAAITWRDGSTYYADSVKGRFTISRDNAKNTVYLQMNSLKPEDTAVYYCAARNSHDGYYDEYYYWGQGTQVTVSS”, which “polyreactivity (PSR sort gate)” value is on record?
Answer: low polyreactivity

Question: With “QVQLVESGGGLVQAGGSLRLSCAASGRTFYVYAMGWYRQAPGKERELVAAITKNGGNTYYADSVKGRFTISRDNAKNTVYLQMNSLKPEDTAVYYCAADKQGFLISYTGYDYWGQGTQVTVSS” as the sequence, how does the “polyreactivity (PSR sort gate)” value read?
Answer: low polyreactivity

Question: Which “polyreactivity (PSR sort gate)” value does the source give for “QVQLVESGGGLVQAGGSLRLSCAASGRTFYVYTMGLYRQAPGKELELVAAISSSGGSTYYADSVKGRFTISRDNAKNTVYLQMNSLKPEDTAVYYCNSQWSLTRYGYWGQGTQVTVSS” here?
Answer: high polyreactivity

Question: For “QVQLVESGGGLVQAGGSLRLSCAASGRTFYVYVMGWYRQAPGKEREFVAAINYGSTYYADSVKGRFTISRDNAKNTVYLQMNSLKPEDTAVYYCATRSGYDSVYYFYTLWYYYWGHGTQVTVSS”, which “polyreactivity (PSR sort gate)” value is on record?
Answer: low polyreactivity

Question: Which “polyreactivity (PSR sort gate)” value does the source give for “QVQLVESGGGLVQAGGSLRLSCAASGRTFYWYALGWYRQAPGKERELVAAITKSGGSTYYADSVKGRFTISRDNAKNTVYLQMNSLKPEDTAVYYWAARYLYLLYYWGQGTQVTVSS” here?
Answer: high polyreactivity

Question: Which “polyreactivity (PSR sort gate)” value does the source give for “QVQLVESGGGLVQAGGSLRLSCAASGRTFYWYGMGWYRQAPGKERELVATISRGSRTYYADSVKGRFTISRDNAKNTVYLQMNSLKPEDTAVYYCNADTWPGEYNGYFSGAYDYWGQGTQVTVSS” here?
Answer: high polyreactivity

Question: For “QVQLVESGGGLVQAGGSLRLSCAASGRTFYYNAMGWSRQATGKERELVAAISGRAGSTYYADSVKGRYTISRDNAKNTVYLQMNSLKPEDTAVYYCNAVRYKYTGRFGYWGQGTQVTVSS”, which “polyreactivity (PSR sort gate)” value is on record?
Answer: high polyreactivity

Question: Which “polyreactivity (PSR sort gate)” value does the source give for “QVQLVESGGGLVQAGGSLRLSCAASGRTFYYNAMGWYRQAPGKEMELVAVITRGSTYYADSVKGRFTISRDNAKNTVYLQMNSLKPEDTAVYYCAKYRHYHRGYDYWGQGTQVTVSS” here?
Answer: high polyreactivity

Question: With “QVQLVESGGGLVQAGGSLRLSCAASGRTFYYNAMGWYRQAPGKERELVARITSSGGSTYYADSVKGRFTISRDNAKSTVYLQMNSLKPEDTAVSYCAAGRSRYLWFGRDFDYWGQGTQVTVSS” as the sequence, how does the “polyreactivity (PSR sort gate)” value read?
Answer: low polyreactivity

Question: With “QVQLVESGGGLVQAGGSLRLSCAASGRTFYYNAMGWYRQAPGKERELVASISWSGTSTYYADSVKGRFTISRDNAKNTVYLQMNSLKPEDTAVYYCATDSYWRQDLYRYEYWGQGTQVTVSS” as the sequence, how does the “polyreactivity (PSR sort gate)” value read?
Answer: high polyreactivity

Question: Which “polyreactivity (PSR sort gate)” value does the source give for “QVQLVESGGGLVQAGGSLRLSCAASGRTFYYNDMGWYRQAPGKERELVAAISWSGVSTSYADSVKGRFTISRDNAKNTVYLQMNSLKPEDTAVYYCAADNDGWYFHITEYDYWGQGTQVTVSS” here?
Answer: low polyreactivity

Question: For “QVQLVESGGGLVQAGGSLRLSCAASGRTFYYNDMGWYRQAPGKERELVATISSGGSTYYADSVKGRFTISRDNAKNTVYLQMNSLKPEDTAVYYCAKRRRYDGWYAGPLYKYDYWGQGTQVTVSS”, which “polyreactivity (PSR sort gate)” value is on record?
Answer: low polyreactivity

Question: Which “polyreactivity (PSR sort gate)” value does the source give for “QVQLVESGGGLVQAGGSLRLSCAASGRTFYYYAMAWYRPAPGKERELVAAISWSGGRTYYADSVKGRFTISRDNAKNTVYLLMNSLIPVDTAVYYCNAEPPRGYTVSSGGEMDYWGQGTQVTVSS” here?
Answer: low polyreactivity

Question: Which “polyreactivity (PSR sort gate)” value does the source give for “QVQLVESGGGLVQAGGSLRLSCAASGRTFYYYAMGWYREAPGKERELVAAINSGVTTSYADSVKGRFTISRDNAKNTVYLQMNSLKPEDTAVYYCAARTFSAFWRGGYDYWGQGTQVTVSS” here?
Answer: low polyreactivity

Question: Which “polyreactivity (PSR sort gate)” value does the source give for “QVQLVESGGGLVQAGGSLRLSCAASGRTFYYYAMGWYRHAPGKERELVAAISIGGITYADSVKGRFTISRDNAKNTVYLQMNSLKPEDTAVYYCAATARQSRGRFYWGQGTQVTVSS” here?
Answer: low polyreactivity

Question: For “QVQLVESGGGLVQAGGSLRLSCAASGRTFYYYAMGWYRQAPGKEMELGAAIRRSGSSTYYADSVKGRFTISRDNAKNTVYLQMNSLKPEDTAVYYCAAAVYQRARYYWGQGTQVTVSS”, which “polyreactivity (PSR sort gate)” value is on record?
Answer: high polyreactivity

Question: Which “polyreactivity (PSR sort gate)” value does the source give for “QVQLVESGGGLVQAGGSLRLSCAASGRTFYYYAMGWYRQAPGKERELVAAINSGGTTSYADSVKGRFTISRDNAKNTVYFQMNSLKPEDTAVYYCAASDYGFPEYLTAYFYWGQGTLVTVSS” here?
Answer: low polyreactivity

Question: For “QVQLVESGGGLVQAGGSLRLSCAASGRTFYYYAMGWYRQAPGKERELVAAIRWRATSTFYADSVKGRFTISRDNAKNTVYLQMNSLKPEDTAVYYCATRGRWGYSGRSQGYSIYNYWGQGTKVTVSS”, which “polyreactivity (PSR sort gate)” value is on record?
Answer: high polyreactivity

Question: For “QVQLVESGGGLVQAGGSLRLSCAASGRTFYYYAMGWYRQAPGKERELVAAISGSGTNTYYADSVKGRFTISRDNAKNTVYLQMNSLKPEDTAVYYCAAEYFGFYTDGGVFDLYYWGQGTQVTVSS”, which “polyreactivity (PSR sort gate)” value is on record?
Answer: low polyreactivity

Question: With “QVQLVESGGGLVQAGGSLRLSCAASGRTFYYYAMGWYRQAPGKERELVAAISWTGGNTYYADSVKGRFTISRDNAKNTVYLQMNSLKPEDTAVYYCAKQTRGYVRGPMYYWGQGTQVTVSS” as the sequence, how does the “polyreactivity (PSR sort gate)” value read?
Answer: high polyreactivity

Question: For “QVQLVESGGGLVQAGGSLRLSCAASGRTFYYYAMGWYRQAPGKERELVAAITGSGANTYYADSVKGRFTISRDNAKNTVYLQMNSLKPEDTAVYYCNTRTLVAMGYWGQGTQVTVSS”, which “polyreactivity (PSR sort gate)” value is on record?
Answer: high polyreactivity

Question: With “QVQLVESGGGLVQAGGSLRLSCAASGRTFYYYAMGWYRQAPGKEREYVASITWRGGRTYYADSVKGRFTISRDNAKNTVYLQMNSLKPEDTAVYYCAADGSYAIGGYGYWGQGTQVTVSS” as the sequence, how does the “polyreactivity (PSR sort gate)” value read?
Answer: high polyreactivity

Question: For “QVQLVESGGGLVQAGGSLRLSCAASGRTFYYYAMGWYRQPPGKERELVAAIRWSTGSTYYADSVKGRFTISRVNAQITVYLQMNSLKPEDTAVYYCAADTWYIQWGYYWGQGTQVTVSS”, which “polyreactivity (PSR sort gate)” value is on record?
Answer: low polyreactivity

Question: With “QVQLVESGGGLVQAGGSLRLSCAASGRTFYYYDMGWYRQAPGKERELVAAIRRSGGSTYYADSVKGRFTISRDNAKNTVYLQMNSLKPEDTAVYYCAAGRRYSGSYDYRGQGTQVTVSS” as the sequence, how does the “polyreactivity (PSR sort gate)” value read?
Answer: high polyreactivity

Question: Which “polyreactivity (PSR sort gate)” value does the source give for “QVQLVESGGGLVQAGGSLRLSCAASGRTFYYYTMGWYRQAPGKDRELVAAIRGSGGSTYYADSVKGRFTISRDNAKNTVYLQMNSLKPEVTAVYYCNATRRRSARYGYISAYDYWGQGTQVTVSS” here?
Answer: high polyreactivity

Question: Which “polyreactivity (PSR sort gate)” value does the source give for “QVQLVESGGGLVQAGGSLRLSCAASGRTFYYYTMGWYRQAPGKERELVAANTWNGGSTYYADSVKGRFTISRDNAKNTVYLQMNSLKPEDPAVYYCNARWTWRYDYWGQGTQVTVSS” here?
Answer: high polyreactivity

Question: Which “polyreactivity (PSR sort gate)” value does the source give for “QVQLVESGGGLVQAGGSLRLSCAASGRTFYYYVMGWYRQAPGKERELVAGITWSGGGTYYADSVKGRFTISRYNAKNTVYLQMNRLKPEDTAVYYCAKKDTLSNRWYGYWGEGTQVTVSS” here?
Answer: high polyreactivity

Question: For “QVQLVESGGGLVQAGGSLRLSCAASGRTFYYYYTMGWYRQAPGKERELVAAISRSGSTNYADSVKGRFTISRDNAKNTVYLQMNSLKPEDTAVYYCARSYRSDGSRFGYWGQGTQVTVSS”, which “polyreactivity (PSR sort gate)” value is on record?
Answer: low polyreactivity

Question: For “QVQLVESGGGLVQAGGSLRLSCAASGRTGYMGWYRQAPGKERELVAAITSRGGSTYYADSVKGRFTISRDNAKNTVYLQMNSLKPEDTAVYYCAAPAYHKRTSRGDYWGQGTQVTVSS”, which “polyreactivity (PSR sort gate)” value is on record?
Answer: low polyreactivity

Question: With “QVQLVESGGGLVQAGGSLRLSCAASGRTIAPYAMGSYRQAPGKERELVAAITYSGGSTYYADSVKGRFTISRDNAKNTVYLQMNSLKPEDTAVYYCAVDTTTSYTVEYDYWGQGTQVTVSS” as the sequence, how does the “polyreactivity (PSR sort gate)” value read?
Answer: low polyreactivity

Question: With “QVQLVESGGGLVQAGGSLRLSCAASGRTIASYTMGWYRPAPGKERDLVAAISKSGGSTYYADSVKGRFTISRDNSKNTVYLQMNSLKPEDTAVYYCNAVGARVASATGMEYWGQGTQVTVSS” as the sequence, how does the “polyreactivity (PSR sort gate)” value read?
Answer: high polyreactivity

Question: With “QVQLVESGGGLVQAGGSLRLSCAASGRTIDRNAMGWYRQPPGKERELVAAISGSGGRTYYADSVKGRFTISRDNEKNSVYLQMNSLKPEDTAVYYCAARVGSSPSKSKYDYWGQGTQVTVSS” as the sequence, how does the “polyreactivity (PSR sort gate)” value read?
Answer: high polyreactivity

Question: With “QVQLVESGGGLVQAGGSLRLSCAASGRTIDSNAMGWYRQAPGKERELVATIDRGGSTNYADSVKGRFTISRDNAKNTVYLQMNSLKPEDTAVYYCATRGHYHAFYYTYPRYDSWGQGTQVTVSS” as the sequence, how does the “polyreactivity (PSR sort gate)” value read?
Answer: low polyreactivity
